The source of these data is publication PMC9544323, “Abscisic acid regulates stomatal production by imprinting a SnRK2 kinase–mediated phosphocode on the master regulator [sequence]” (Science Advances, 2022).

To fix the notation:
T1: GST-SPCH (glutathione S-transferase-tagged …) (Arabidopsis thaliana, UniProt Q700C7 1-364)
T1 construct: cDNA cloned into pDEST15; cDNA recombined into pDEST15; also called GST-tagged SPCH; source: E. coli ArcticExpress (DE3), purified (Pierce Glutathione Agarose)
T1 sequence (looked up): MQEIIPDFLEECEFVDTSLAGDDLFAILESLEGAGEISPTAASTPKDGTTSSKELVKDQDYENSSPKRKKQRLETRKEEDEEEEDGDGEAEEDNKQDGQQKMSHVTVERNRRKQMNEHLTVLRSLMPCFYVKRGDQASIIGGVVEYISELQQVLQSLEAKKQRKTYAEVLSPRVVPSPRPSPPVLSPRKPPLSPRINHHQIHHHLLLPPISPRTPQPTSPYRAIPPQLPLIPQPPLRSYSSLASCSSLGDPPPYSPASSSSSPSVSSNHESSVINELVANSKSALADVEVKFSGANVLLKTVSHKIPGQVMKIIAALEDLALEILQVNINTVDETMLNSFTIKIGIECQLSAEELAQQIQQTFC

B1: MBP-SnRK2.2 (maltose-binding protein-tagged SnRK2.2) (enzyme, Arabidopsis thaliana, UniProt Q39192 1-362, looked up)
chain: MDPATNSPIMPIDLPIMHDSDRYDFVKDIGSGNFGVARLMTDRVTKELVAVKYIERGEKIDENVQREIINHRSLRHPNIVRFKEVILTPSHLAIVMEYAAGGELYERICNAGRFSEDEARFFFQQLISGVSYCHAMQICHRDLKLENTLLDGSPAPRLKICDFGYSKSSVLHSQPKSTVGTPAYIAPEILLRQEYDGKLADVWSCGVTLYVMLVGAYPFEDPQEPRDYRKTIQRILSVTYSIPEDLHLSPECRHLISRIFVADPATRITIPEITSDKWFLKNLPGDLMDENRMGSQFQEPEQPMQSLDTIMQIISEATIPTVRNRCLDDFMADNLDLDDDMDDFDSESEIDVDSSGEIVYAL
notes: SnRK2.2/SRK2D, subclass III SNF1-related protein kinase 2, Arabidopsis thaliana; cDNA cloned into pETG-40A; also called SRK2D; source: E. coli ArcticExpress (DE3), purified (MBP amylose resin)
B2: MBP-SnRK2.3 (maltose-binding protein-tagged SnRK2.3) (enzyme, Arabidopsis thaliana, UniProt Q39193 1-361, looked up)
chain: MDRAPVTTGPLDMPIMHDSDRYDFVKDIGSGNFGVARLMRDKLTKELVAVKYIERGDKIDENVQREIINHRSLRHPNIVRFKEVILTPTHLAIIMEYASGGELYERICNAGRFSEDEARFFFQQLLSGVSYCHSMQICHRDLKLENTLLDGSPAPRLKICDFGYSKSSVLHSQPKSTVGTPAYIAPEVLLRQEYDGKIADVWSCGVTLYVMLVGAYPFEDPEEPRDYRKTIQRILSVKYSIPDDIRISPECCHLISRIFVADPATRISIPEIKTHSWFLKNLPADLMNESNTGSQFQEPEQPMQSLDTIMQIISEATIPAVRNRCLDDFMTDNLDLDDDMDDFDSESEIDIDSSGEIVYAL
notes: SnRK2.3/SRK2I, subclass III SNF1-related protein kinase 2, Arabidopsis thaliana; cDNA cloned into pETG-40A; also called SRK2I; source: E. coli ArcticExpress (DE3), purified (MBP amylose resin)
B3: MBP-SnRK2.6 (maltose-binding protein-tagged SnRK2.6) (enzyme, Arabidopsis thaliana, UniProt Q940H6 1-362, looked up)
chain: MDRPAVSGPMDLPIMHDSDRYELVKDIGSGNFGVARLMRDKQSNELVAVKYIERGEKIDENVKREIINHRSLRHPNIVRFKEVILTPTHLAIVMEYASGGELFERICNAGRFSEDEARFFFQQLISGVSYCHAMQVCHRDLKLENTLLDGSPAPRLKICDFGYSKSSVLHSQPKSTVGTPAYIAPEVLLKKEYDGKVADVWSCGVTLYVMLVGAYPFEDPEEPKNFRKTIHRILNVQYAIPDYVHISPECRHLISRIFVADPAKRISIPEIRNHEWFLKNLPADLMNDNTMTTQFDESDQPGQSIEEIMQIIAEATVPPAGTQNLNHYLTGSLDIDDDMEEDLESDLDDLDIDSSGEIVYAM
notes: SnRK2.6/SRK2E/OST1, subclass III SNF1-related protein kinase 2, Arabidopsis thaliana; cDNA cloned into pETG-40A; also called SRK2E; OPEN STOMATA 1; source: E. coli ArcticExpress (DE3), purified (MBP amylose resin)

This test concerns the target T1, GST-SPCH (glutathione …). Put plainly: pull-down; GST-SPCH or GST (1 ug) on Pierce Glutathione Agarose; MBP-SnRK2.2/2.3/2.6 or MBP alone (1 ug) added; 4 C, 2 hours; washed five times with 20 mM tris-HCl pH 7.5, 300 mM NaCl, 0.1% NP-40, 1 mM EDTA; blot with anti-MBP. Particulars: both partners purified.
As for B1, the binding result is reported as “binds”.
B2: the binding result was “binds”.
B3: the binding result is “binds”.
